From paper PMC3668366

B1: 10-mer-A (M) (dsDNA)
DNA 1: GTCAGTCAGATTGCGCAATATAGGTCAG
DNA 2: CTGACCTATATTGCGCAATCTGACTGAC
modifications: 5mC at position 14 of each strand
B2: Hetero (CGAT|GCAA) unmethylated (dsDNA)
DNA 1: GTCAGTCAGACGATGCAATATAGGTCAG
DNA 2: CTGACCTATATTGCATCGTCTGACTGAC

Legend:
CEBPB B-ZIP domain = CEBPB B-ZIP domain (mouse, UniProt P28033 222-285); assay: EMSA
[1] = target: CEBPB B-ZIP domain;ATF4 B-ZIP domain (mouse;mouse, UniProt P28033;Q06507 222-285;276-339, |); assay: EMSA
Sequence of CEBPB B-ZIP domain;ATF4 B-ZIP domain (P28033 222-285, chain 1 of 2): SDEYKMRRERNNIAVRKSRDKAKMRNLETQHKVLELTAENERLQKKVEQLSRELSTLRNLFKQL
Sequence of CEBPB B-ZIP domain;ATF4 B-ZIP domain (Q06507 276-339, chain 2 of 2): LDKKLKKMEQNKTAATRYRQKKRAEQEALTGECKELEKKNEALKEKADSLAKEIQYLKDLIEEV

Sequence of CEBPB B-ZIP domain (P28033 222-285): as the sequence (P28033 222-285, chain 1 of 2) above

Binder | apparent K (half saturation) (CEBPB B-ZIP domain) [nM] | binding signal [1]
B1 | ~5 | –
B2 | – | 10 fold weaker than methylated N2
